Results: the supplement of paper PMC9170038

Tests used:
MS2 coat protein [1] = experiment: apparent KD of MS2 coat protein, switch ON state; designed switch direction (-1 OFF switch, 1 ON switch): -1; higher = weaker reporter binding; conditions: FMN input: 0 or 200 uM; Eterna round: R93 (includes R88 designs)
How it was run: (§1)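 Values are apparent KD, taken as the median for each design of fits to normalised binding curves from individual clusters. The designed RNA switches were transcribed on-chip from Illumina sequencing clusters and exposed to SNAP-549-labelled MS2 coat protein at twofold increasing amounts from 0.7 or 1.5 nM to 3 µM. Titration used 100 mM Tris-HCl pH 7.5, 80 mM KCl and 4 mM MgCl2, without or with constant ligand.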

MS2 coat protein [2] = experiment: apparent KD of MS2 coat protein, switch OFF state (with FMN for OFF switches, without FMN for ON switches); designed switch direction (-1 OFF switch, 1 ON switch): -1; higher = weaker reporter binding; conditions: FMN input: 0 or 200 uM; Eterna round: R93 (includes R88 designs)
How it was run: as §1

Sequence | apparent KD of MS2 coat protein (MS2 coat protein [1]) | apparent KD of MS2 coat protein (MS2 coat protein [2])
AGGGAGUGAGGAUAUACGAAAAAAAAACAACGAAAAAAAGAGUAGAAGGCACAUGAGGAUCACCCAUGUAAGAA [milkweed 14] | 44.5 nM | 25.3 nM
AUAAGUGCAGGAUAUACGAAAAGCUAGCGAAAGCUAGCGGGACAUGAGGAUCACCCAUGUAGAAGGGCACAAUA [Tetraloop hairpin BlockHead... 61% 6] | 25 nM | 50.3 nM
AACAGUACAGGAUAUACAUGAGGAUCACCCAUGUGAAGAUUAAGAAGAAACCCACAAAGUAGAAGGGUACUGGA [Ruby 92] | 29 nM | 47.4 nM
GAAAAGUGAGGAUAUAGCAAAGGUCACGAAAGUGACAAAGGCUAGAAGGCACAUGAGGAUCACCCAUGUCCAAG [Mat - Exclusion 4 - Eli mod - D99] | 20.3 nM | 49.9 nM
AAAGUGUGAGGAUAUGCGAAAGGACACGAAAGUGACAAAGAGCAGAAGGUACAUGAGGAUCACCCAUGUAAAAA [milkweed 19] | 27.2 nM | 20.4 nM
AUAAAGUCAGGAUAUGUAAGAAUAACGAAAGUUAUAAAGAAACAGAAGGGACAUGAGGAUCACCCAUGUAAAAU [Ex 4 #3] | 43.1 nM | 31 nM
AAACAUGGAGGAUAUACAUGAGGAUCACCCAUGUGUAUGAAAAAAUAUACAAAAGAAUGUAGAAGGCCAUGAAA [Mat - Exclusion 3 - Mayanna mod - D102] | 26.9 nM | 47.8 nM
AAAAAGUUAGGAUAUACAUGAGGAUCACCCAUGUGCACGUAUGGAGAAUAUGGUGGUGGUAGAAGGGACAAAAA [EX2 Malc#19] | 43.2 nM | 65.5 nM
AAAUAGCAAGGAUAUACAUGAGGAUCACCCAUGUGAACAAGGUAUGGAAUAGAAUAGAGUAGAAGGUGCAAAUA [Mod 2 of Ex 3 Tesla 8 - Jieux - Exclusion 3] | 31.3 nM | 43.4 nM
AAAAAACAUGAGGAUCACCCAUGUAAGGAUAUGCCAACAAACAAACAAACAAAAAAAAGCAGAAGGUACAAAAA [Amethyst 70] | 19.8 nM | 24.1 nM
AACGCACAUGAGGAUCACCCAUGUCAGGAUAUCGUGGCGGGAAAAACCGGGAAACGCACGAGAAGGGACAAAAA [EX1 Malc#18 Mod 14 - Jieux - Exclusion 1] | 47.6 nM | 42.2 nM
AGGCUCCUAGGAUAUACUGGCUGGCCUCCACAAAAGAAAAUACAUGAGGAUCACCCAUGUAGAAGGAGGAGUGG [Geesar] | 19.3 nM | 22.7 nM
AGCUAGUCAGGAUAUACAAAAAUGAUAGAAGACGUAAGGGAACAUGAGGAUCACCCAUGUAGAAGGGACUAGCA [Diamond 44] | 41 nM | 129 nM
AUAAUGUGAGGAUAUACAUGAGGAUCACCCAUGUAAUUAAAUAGGAGAGACACAAUUCGUAGAAGGUACAUUUA [JR_Exc003_Sub508] | 29.4 nM | 27.7 nM
AUCAUGUUAGGAUAUUUAAGAAAAGAAAAGAAAGAAAAGAAAAAGAAGGAACAUGAGGAUCACCCAUGUAAGAA [EteRNA is fun!] | 27.5 nM | 22 nM
AAGAAGGUAGGAUAUACUAAAGAAAUGAAAAGAAAUAAAGAACAUGAGGAUCACCCAUGUAGAAGGACCAAGAA [Webenre] | 25.8 nM | 32.2 nM
AACAGUACAGGAUAUACAUGAGGAUCACCCAUGUGAAAAUAAAGUGGCGUACCACAAAGUAGAAGGGUACUGGA [Moding Maslow revisited (73) 4] | 28.8 nM | 101 nM
AAGAAUGGAGGAUAUACAUGAGGAUCACCCAUGUAAAAGAAAGAAAGGGAAAAGAAAAGUAGAAGGCCAAAGAA [Hedjkheperre Harsiese] | 46.6 nM | 42.1 nM
AAUAACUGAGGAUAUACUAAAGAAAUGAAAAGAAAUAAAGAACAUGAGGAUCACCCAUGUAGAAGGCAGAAUAA [Nuya] | 32 nM | 30.6 nM
AACAAACAUGAGGAUCACCCAUGUCAGGAUAUGCACAAACAAACAAACAAACAAGCAAGCAGAAGGGACACAAC [Amethyst 89] | 13.7 nM | 27.6 nM
CUCAAGUUAGGAUAUUGAAGAAAAGAAGAGAAAGAAAAGAACAAGAAGGAACAUGAGGAUCACCCAUGUAAGAA [EteRNA is fun!] | 22.9 nM | 21.8 nM
AAAAGACAUGAGGAUCACCCAUGUUAGGAUAUCGUGCAGAAAAAAAAAAAAAACUGCACGAGAAGGAACAAGGA [Seclusion] | 30.5 nM | 51.9 nM
GGAAAACAUGAGGAUCACCCAUGUGAGGAUAUCGAUGUCCAAUAAAAAGUGCGGGACUCGAGAAGGCACUUGGA [salish99-ex1-41] | 36.2 nM | 29.2 nM

Sequence | apparent KD of MS2 coat protein (MS2 coat protein [1]) | apparent KD of MS2 coat protein (MS2 coat protein [2])
AAGAAGAGAGGAUAUACAUGAAAGAAAGAAAAGAAAAGAAAACAUGAGGAUCACCCAUGUAGAAGGCUCAAGAA [EteRNA is fun!] | 39.4 nM | 40.6 nM
AACAAGUGAGGAUAUGAAAAUACAACAAACAAACAACUACAUCAGAAGGCACAUGAGGAUCACCCAUGUAAAAC [JR_Exc004_Sub1204] | 19 nM | 20.7 nM
GAUAGGCGAGGAUAUACAUGAGGAUCACCCAUGUAAGUAAGCCUGGCUGAAACUGAAUGUAGAAGGCGCACAUU [Ex3Try2_Neo] | 16.2 nM | 39.6 nM
AAGAACAUAGGAUAUACAAAAUAAAAGAAAAGAAAGAAAGAACAUGAGGAUCACCCAUGUAGAAGGAUGAAGAA [Khakaure Senusret III] | 39 nM | 24.4 nM
GGUUGUGAAGGAUAUACAUGAGGAUCACCCAUGUGAGAGAAAAAAGUGAGAAAGAAAAGUAGAAGGUCGUGACG [salish99-ex3-73] | 34.7 nM | 40.2 nM
AACAGUACAGGAUAUACAUGAGGAUCACCCAUGUGAGAAUUAAGUGGAAGACCACAAAGUAGAAGGGUACUGAA [Mat - Exclusion 3 - JL mod - D10] | 28.4 nM | 189 nM
AAAAGUGGAGGAUAUACAUGAGGAUCACCCAUGUGUAAAAAUAAAAACACAAAAGAAAGUAGAAGGCCACAAAG [Mat - Exclusion 3 - Mayanna mod - D115] | 19.4 nM | 55.2 nM
GAGGAACAUGAGGAUCACCCAUGUGAGGAUAUCGGAGGAGGAGGAGGAGGAGGAGGAGCGAGAAGGUACAAGAG [salish99-Ex1-03] | 22.7 nM | 29.8 nM
CUCAAGUCAGGAUAUAAAAGAAAAGAAGAGAAAGAAAAGAAUUAGAAGGGACAUGAGGAUCACCCAUGUAAGAA [EteRNA is fun!] | 66.9 nM | 60.6 nM
AUAGGCCUAGGAUAUACAUGAGGAUCACCCAUGUUAACACUGCAAUCAAGUUAAUAUUGUAGAAGGAGGAAUAA [JR_Exc003_Sub310] | 26.3 nM | 26.1 nM
GAAAAGUCAGGAUAUAUGCGAAAAAUAAAAAAAAUAAAAACAUAGAAGGGACAUGAGGAUCACCCAUGUUAAAG [Mat - Exclusion 4 - Mayanna - D135] | 37.7 nM | 25.4 nM
AGCACGUCAGGAUAUACGAAAAAAAAGGGUAAAAAAAAGGGACAUGAGGAUCACCCAUGUAGAAGGGACAAGCA [Diamond 93] | 147 nM | 172 nM
AAAAAAGGAGGAUAUACGAACAUGUCAAAAGACGUGAAGGGACAUGAGGAUCACCCAUGUAGAAGGUUUAAAAA [JL Wide Open 32] | 48 nM | 15 nM
AAAAAACAUGAGGAUCACCCAUGUGAGGAUAUCGGAGGAGGAGGAGGAGGAGGAGGAGCGAGAAGGUACAAAAA [salish99-Ex1-04] | 14.4 nM | 31.5 nM
AAGAAGGGAGGAUAUACAUGAGGAUCACCCAUGUAAAAGAAAGAAAAGGGAAAGAAAAGUAGAAGGCCCAAGAA [Seqenenre Tao] | 36.9 nM | 40.2 nM
UAGAACCUAGGAUAUACUUGGACCACUAAUUUACAGAUAUAACAUGAGGAUCACCCAUGUAGAAGGAGGAGUAA [JR_Exc002_Sub202] | 36.8 nM | 25.7 nM
AAGAACGGAGGAUAUACAAAAUAAAAGAAAAGAAAGAAAGAACAUGAGGAUCACCCAUGUAGAAGGUCGAAGAA [Seth Meribre] | 14.9 nM | 20.8 nM
AACAGUACAGGAUAUACAUGAGGAUCACCCAUGUCACAACAAAGCAGCGUAACACAAAGUAGAAGGGUAAUGGA [Ruby 16] | 48.6 nM | 39.5 nM
AAGAAACAUGAGGAUCACCCAUGUAAGGAUAUGUAAAAGAAAAGAAAAGAAAGAAGAAACAGAAGGUACAAAGG [Wahankh Intef II] | 46 nM | 33.7 nM
AAAAAGGCAGGAUAUACAUGAGGAUCACCCAUGUAAAAAAAAAAAAAGGGAAAAAAAAGUAGAAGGGCCAAAAA [Khamudi] | 35.8 nM | 48.5 nM
ACGUAGUCAGGAUAUACGAACAUGUCAAAAGACGUGAAGGGACAUGAGGAUCACCCAUGUAGAAGGGACUACGA [Mat - Exclusion 2 - JL mod - D5] | 43.1 nM | 129 nM
AAAAAACAUGAGGAUCACCCAUGUGAGGAUAUGAUGCGAAUAAAGAAAGAAUAAAGCAUCAGAAGGCACACCAA [Mat - Exclusion 1 - Eli mod - D61] | 27.9 nM | 48.7 nM
